The results in this text go back to patent US20260146069A1 (PAPYRUS THERAPEUTICS, published 2026).

This series concerns the molecule itself. The series can be described thus: Western blot (8% SDS-PAGE, goat anti-human OPCML) of Ni-NTA purified protein; self-association. How it is done:
Samples were separated on an 8% SDS-PAGE gel, transferred to a nitrocellulose or polyvinylidene fluoride (PVDF) membrane (Millipore Corporation), blocked, and incubated with polyclonal goat anti-human OBCAM (OPCML; R&D Systems) as a primary antibody, diluted 1:1000, at 4° C. overnight. After washing, the membrane was incubated with HRP-labeled anti-goat as the secondary antibody, diluted 1:5000. After final washings, proteins were detected using Immobilon Western Chemiluminescent HRP substrate system (Millipore) and GE Healthcare Amersham “Hyperfilm” ECL film with a Kodak SRX2000 (Rochester, NY, USA) developer machine.

B1: rOPCML-Fc protein (PYTX-004 construct) (Fc fusion)
chain: ATFPKAMDNVTVRQGESATLRCTIDDRVTRVAWLNRSTILYAGNDKWSIDPRVIILVNTPTQYSIMIQNVDVYDEGPYTCSVQTDNHPKTSRVHLIVQVPPQIMNISSDITVNEGSSVTLLCLAIGRPEPTVTWRHLSVKEGQGFVSEDEYLEISDIKRDQSGEYECSALNDVAAPDVRKVKITVNYPPYISKAKNTGVSVGQKGILSCEASAVPMAEFQWFKEETRLATGLDGMRIENKGRMSTLTFFNVSEKDYGNYTCVATNKLGNTNASITLYGPGGGGLEVLFQGPGGSTKGPSVFLFPPKPKDTLMISRTPEVTCVVVDVSHEDPEVKFNWYVDGVEVHNAKTKPREEQYNSTYRVVSVLTVLHQDWLNGKEYKCKVSNKALPAPIEKTISKAKGQPREPQVYTLPPSRDELTKNQVSLTCLVKGFYPSDIAVEWESNGQPENNYKTTPPVLDSDGSFFLYSKLTVDKSRWQQGNVFSCSVMHEALHNHYTQKSLSLSPGKRTGHHHHHH
notes: Expressed in HEK-293 clone 18G9 and purified on Ni-NTA; After purification it reports a 160 kDa form and an 80 kDa monomer; also called rOPCML-Fc PYTX-004; OPCML-Fc PYTX-004
For B1, the binding result is on record as “binds”.
